According to patent US20230012273A1 (Boehringer Ingelheim, published 2023):
Substitutions are numbered along the chain they refer to.

T1: full-length cynomolgus SIRPα (EGM-02252) on CHO cells, clone H3A9 (cynomolgus monkey, UniProt A0A2K5VYQ9)
T1 construct: whole, on cells; also called EGM-02252 Clone H3A9
T1 sequence: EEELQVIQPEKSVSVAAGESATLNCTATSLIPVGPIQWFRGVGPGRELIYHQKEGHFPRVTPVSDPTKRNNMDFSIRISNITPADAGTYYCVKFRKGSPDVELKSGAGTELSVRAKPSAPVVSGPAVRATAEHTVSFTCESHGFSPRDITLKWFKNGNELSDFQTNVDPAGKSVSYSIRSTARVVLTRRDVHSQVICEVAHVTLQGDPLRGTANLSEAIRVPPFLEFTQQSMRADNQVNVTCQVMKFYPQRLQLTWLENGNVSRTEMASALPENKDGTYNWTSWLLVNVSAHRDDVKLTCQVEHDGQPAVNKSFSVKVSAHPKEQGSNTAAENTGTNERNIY

T2: full-length cynomolgus SIRPα (NP_001271679) on CHO cells, clone HC6 (cynomolgus monkey, UniProt A0A2K5VYQ9)
T2 construct: whole, on cells; also called NP_001271679 Clone HC6
T2 sequence: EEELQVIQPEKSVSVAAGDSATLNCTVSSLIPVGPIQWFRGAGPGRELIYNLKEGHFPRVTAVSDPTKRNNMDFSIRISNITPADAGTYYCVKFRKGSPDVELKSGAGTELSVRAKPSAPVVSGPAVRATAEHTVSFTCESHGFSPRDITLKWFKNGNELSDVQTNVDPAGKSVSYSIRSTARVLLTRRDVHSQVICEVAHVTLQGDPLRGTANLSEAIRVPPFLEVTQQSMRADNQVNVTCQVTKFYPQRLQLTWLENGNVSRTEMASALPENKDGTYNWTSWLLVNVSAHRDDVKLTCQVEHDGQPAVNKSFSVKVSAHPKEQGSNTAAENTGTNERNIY

B1: Anti-SIRPα antibody KWAR23 (antibody, V domains shown)
VH: EVQLQQSGAELVKPGASVKLSCTASGFNIKDYYIHWVQQRTEQGLEWIGRIDPEDGETKYAPKFQDKATITADTSSNTAYLHLSSLTSEDTAVYYCARWGAYWGQGTLVTVSS
VL: QIVLTQSPAIMSASPGEKVTLTCSASSSVSSSYLYWYQQKPGSSPKLWIYSTSNLASGVPARFSGSGSGTSYSLTISSMEAEDAASYFCHQWSSYPRTFGAGTKLELK
B2: Antibody A (antibody, human IgG1, kappa, L234A L235A)
heavy: not shown
light: DIQMTQSPSSLSASVGDRVTITCRASQDINNYLAWFQQKPGKAPKSLIYTASSLHSGVPSKFSGSGSGTDFTLTISSLQPEDFATYYCQQYVSYPYTFGQGTKLEIKRTVAAPSVFIFPPSDEQLKSGTASVVCLLNNFYPREAKVQWKVDNALQSGNSQESVTEQDSKDSTYSLSSTLTLSKADYEKHKVYACEVTHQGLSSPVTKSFNRGEC
B3: Antibody A10 (antibody, human IgG1, kappa, L234A L235A)
heavy: not shown
light: B2 light
B4: Antibody E (antibody, human IgG1, kappa, L234A L235A)
heavy: not shown
light: DIVMTQSPLSLPVTPGEPASISCKSSQSLLYSNGYNYLDWYLQRPGQSPQLLIYLGSNRASGVPDRFSGSGSGTDFTLKISRVEAEDVGVFYCMQALQTPLTFGGGTKVEIKRTVAAPSVFIFPPSDEQLKSGTASVVCLLNNFYPREAKVQWKVDNALQSGNSQESVTEQDSKDSTYSLSSTLTLSKADYEKHKVYACEVTHQGLSSPVTKSFNRGEC
B5: Antibody E22 (antibody, human IgG1, kappa, L234A L235A, V domains shown)
VH: QVQLQESGPGLVKPSETLSLTCTVSGGSIRDYYWSWIRQPPGKGLEWIGFIYYNGRTFYQSSLKSRVTISLDTSKNQFSLKMTSVTAADTAVYYCARVRAYSGIGLDGTDVWGQGTTVTVSS
VL: DIVMTQSPLSLPVTPGEPASISCRSSQSLLYSTGYTYLDWYLQRPGQSPQLLIYGGSSRASGVPDRFSGSGSGTDFTLKISRVEAEDVGVFYCGQALQTPLTFGQGTKVEIKR
B6: Antibody D (antibody, human IgG1, kappa, L234A L235A, V domains shown)
VH: EVQLVESGGGLVQPGGSLRLSCAASGFTFSSFDMHWVRQPTGKGLEWVSTIGIAGDTYFPGSVKGRFTISRENAKNSLYLQMNSLRAGDTAVYYCARGGNWDDALDIWGQGTMVTVSS
VL: DIQMTQSPSSLSASVGDRVTITCRASQDINNYLAWFQQKPGKAPKSLIYTASSLQSGVPSKFSGSGSGTDFTLTISSLQPEDFATYYCQQYNTYPYTFGQGTKLEIKR
B7: Antibody C (antibody, human IgG1, kappa, L234A L235A, V domains shown)
VH: B6 VH with F32Y, P40A, T50V, F59Y, A87V, N100S, L105F
VL: B6 VL with V15I, R18K, N92V, T93S
B8: Antibody B (antibody, human IgG1, kappa, L234A L235A, V domains shown)
VH: QVQLVQSGAEVKKPGASVKVSCKASGYTFTGNYMHWVRQAPGQGLEWMGWINPNSGGTNYAQKFQGRVTMTRDTSISTAYMELSRLRSDDTAVYYCVSGSGWYENYYYYGMDVWGQGTTVTVSS
VL: DIQMTQSPSSVSASVGDRVTITCRASQGISSWLAWYQQKPGKAPKLLIYAESSLQSGVPSRFSGSGSGTDFTLTISSLQPEDFATYYCQQANSFPLTFGGGTKVEIKR

These binders were tested against T1, full-length cynomolgus SIRPα … (assay: flow cytometry, CHO cells).
Protocol: (§1) Antibody binding to cells expressing cynomolgus (cyno) SIRPα was evaluated by flow cytometry. CHO-K1 cells expressing full-length cyno SIRPα; derived from protein sequence accession numbers (A) EGM-02252; (B) XP_015313155; or (C) NP_001271679, are blocked with donkey IgG and incubated on ice with increasing concentrations of antibodies for 60 minutes, washed and stained with AF647-conjugated donkey F(ab′)₂ anti-human IgG secondary reagent. Cells are washed, fixed, and analyzed by flow cytometry. Median fluorescent intensity is determined and used as a measure of antibody binding.

EC50 [pM]	Binder
900	B1
1900	B2
1500	B3

Each binder was assayed against T2, full-length cynomolgus SIRPα … (assay: flow cytometry, CHO cells).
Protocol: as §1

EC50 [pM]	Binder
2000	B1
4500	B2
3700	B3

Each binder was assayed against T3, full-length cynomolgus SIRPβ1 (XP_005568598) on CHO cells, clone PA2 (cynomolgus monkey) (assay: flow cytometry, CHO cells).
T3 construct: whole, on cells; also called SIRPβ1 XP_005568598 Clone PA2
Protocol: (§2) Antibody binding to cells expressing full-length cynomolgus SIRPβ1 (XP_005568598) and SIRPβ1v3 (XP_005568593) is evaluated by flow cytometry. SIRPβ1- or SIRPβ1V3-expressing CHO cells are blocked with donkey IgG and incubated on ice with increasing concentrations of antibodies for 60 minutes, washed and stained with AF647-conjugated donkey F(ab′)₂ anti-human IgG secondary reagent. Cells are washed, fixed, and analyzed by flow cytometry. Median fluorescent intensity is determined and used as a measure of antibody binding.

EC50 [pM]	Binder
200	B1
700	B2
600	B3

The binders below were run against T4, full-length cynomolgus SIRPβ1v3 (XP_005568593) on CHO cells, clone 1HC6 (cynomolgus monkey) (assay: flow cytometry, CHO cells).
T4 construct: also called SIRPβ1v3 XP-005568593 Clone 1HC6
Protocol: as §2

EC50 [pM]	Binder
400	B1
800	B4
1000	B5

The binders below were run against T5, full-length human SIRPβ1 (NP_006056.2) on cells (human, UniProt O00241 30-398) (assay: flow cytometry, Expi-CHO cells).
T5 construct: also called β1 WT
Protocol: These cells are blocked with donkey IgG and incubated on ice with increasing concentrations of antibodies for 60 minutes, washed and stained with AF647-conjugated donkey F(ab′)₂ anti-human IgG antibodies. Stained cells are washed, fixed, and analyzed by flow cytometry. Median fluorescent intensity is determined and used as a measure of antibody binding.

EC50 [pM]	Binder
200	B1
200	B6
1600	B2
1600	B3
200	B7

The binders below were run against T5, full-length human SIRPβ1 (NP_006056.2) … (assay: flow cytometry, U937 SIRPα-KO transfectants).
Protocol: as §2, with “human” for “cynomolgus”, “(NP_006056.2)” for “(XP_005568598)”, “SIRPβL (NP_001129316.1)” for “SIRPβ1v3 (XP_005568593)”, “SIRPβL-expressing U937^{SIRPα KO}” for “SIRPβ1V3-expressing CHO”

EC50 [pM]	Binder
200	B1
400	B6
200	B2
200	B3
500	B7

The binders below were run against T6, full-length human SIRPβL (NP_001129316.1) on cells (human, UniProt Q5TFQ8 30-398) (assay: flow cytometry, U937 SIRPα-KO transfectants).
T6 construct: one molecule for U937 SIRPα-KO transfectants (NP_001129316.1) and Expi-CHO transfectants (Q5TFQ8); also called SIRPβ1v3; βL WT
Protocol: as §2, with “human” for “cynomolgus”, “(NP_006056.2)” for “(XP_005568598)”, “SIRPβL (NP_001129316.1)” for “SIRPβ1v3 (XP_005568593)”, “SIRPβL-expressing U937^{SIRPα KO}” for “SIRPβ1V3-expressing CHO”

EC50 [pM]	Binder
200	B1
300	B4
600	B5

The binders below were run against T7, full-length human SIRPαV2 (CAA71403.1) on cells (human, UniProt P78324 31-504) (assay: flow cytometry, competition with CD47 tetramer, monocytes V2V2).
T7 construct: one molecule for CHO-K1 and Expi-CHO transfectants (CAA71403.1) and for endogenous V2 on THP-1 cells and on CD14+ monocytes of V2/V2 donors; also called CHO-hSIRPαV2; αV2 WT
Protocol: Cells are washed, fixed, and analyzed by flow cytometry. Median fluorescent intensity of CD14+gated population is determined and used as a measure of CD47 binding.

IC50 [pM]	Binder
110	B1
4600	B8
300	B5
50	B6
50	B7

These binders were tested against T8, recombinant human SIRPγ extracellular domain (ECD)/His protein (NP_061026.2) (human, UniProt Q9P1W8 29-360) (assay: ELISA, immobilised His-tagged human SIRPγ extracellular domain (average fluorescence)).
T8 construct: coated on ELISA plates; also called recombinant hSIRPγ; not shown: His-tag
Protocol: A biochemical ELISA-based assay is utilized to evaluate the binding of antibodies to SIRPγ. Black, 96-well flat-bottom immunoassay plates are coated with recombinant human SIRPγ extracellular domain (ECD)/His protein (NP_061026.2) diluted in DPBS and incubated overnight at 4° C. […] Plates are washed and serially titrated antibodies are added to respective wells for an incubation of about 1-2 h at RT. After the incubation, the plates are washed and HRPO-conjugated mouse anti-human IgG secondary reagent (Jackson Immuno Research) is added to each well and incubated for about 1-2 hours. Following the final plate washing, Amplex™ red substrate is added and incubated at RT in the dark for 15-30 minutes. Fluorescence is detected (λEx/λEm=530/590 nm) using EnVision Multilabel Plate Reader (Perkin Elmer). Average fluorescence is plotted for measuring the antibody binding.

binding result	Binder
no binding (tested: about 67 nM)	B8
no binding (tested: about 67 nM)	B4
no binding (tested: about 67 nM)	B6
no binding (tested: about 67 nM)	B2
